Source: patent US20110195911A1, “SYNTHETIC ANALOGS OF THE JUXTAMEMBRANE DOMAIN OF IGF1R AND USES THEREOF” (THE UNITED STATES OF AMERICA,AS REPRESENTED BY THE …, priority 2008, published 2011)
Where no end group is shown, it is not given here. [ ]: non-standard residue; d: D form. The star is where a group is joined. Palmitoyl = CCCCCCCCCCCCCCCC(=O)*

B1: peptide 20 (Pal-RLGNGVLY-NH2) (peptide)
peptide: Palmitoyl-RLGNGVLY-NH2
SMILES: CCCCCCCCCCCCCCCC(=O)N[C@@H](CCCNC(=N)N)C(=O)N[C@@H](CC(C)C)C(=O)NCC(=O)N[C@@H](CC(N)=O)C(=O)NCC(=O)N[C@H](C(=O)N[C@@H](CC(C)C)C(=O)N[C@@H](Cc1ccc(O)cc1)C(N)=O)C(C)C
B2: peptide 3 (Pal-HRKRNNSRLGNGVLYASVN-NH2) (peptide)
peptide: Palmitoyl-HRKRNNSRLGNGVLYASVN-NH2
SMILES: CCCCCCCCCCCCCCCC(=O)N[C@@H](Cc1c[nH]cn1)C(=O)N[C@@H](CCCNC(=N)N)C(=O)N[C@@H](CCCCN)C(=O)N[C@@H](CCCNC(=N)N)C(=O)N[C@@H](CC(N)=O)C(=O)N[C@@H](CC(N)=O)C(=O)N[C@@H](CO)C(=O)N[C@@H](CCCNC(=N)N)C(=O)N[C@@H](CC(C)C)C(=O)NCC(=O)N[C@@H](CC(N)=O)C(=O)NCC(=O)N[C@H](C(=O)N[C@@H](CC(C)C)C(=O)N[C@@H](Cc1ccc(O)cc1)C(=O)N[C@@H](C)C(=O)N[C@@H](CO)C(=O)N[C@H](C(=O)N[C@@H](CC(N)=O)C(N)=O)C(C)C)C(C)C
B3: peptide 21 (Pal-VSAYLVGNGLRSNNR-NH2) (peptide)
peptide: Palmitoyl-[dV][dS][dA][dY][dL][dV]G[dN]G[dL][dR][dS][dN][dN][dR]-NH2
SMILES: CCCCCCCCCCCCCCCC(=O)N[C@@H](C(=O)N[C@H](CO)C(=O)N[C@H](C)C(=O)N[C@H](Cc1ccc(O)cc1)C(=O)N[C@H](CC(C)C)C(=O)N[C@@H](C(=O)NCC(=O)N[C@H](CC(N)=O)C(=O)NCC(=O)N[C@H](CC(C)C)C(=O)N[C@H](CCCNC(=N)N)C(=O)N[C@H](CO)C(=O)N[C@H](CC(N)=O)C(=O)N[C@H](CC(N)=O)C(=O)N[C@H](CCCNC(=N)N)C(N)=O)C(C)C)C(C)C
B4: peptide 27 (Pal-KRNNSRLGNGVLY-NH2) (peptide)
peptide: Palmitoyl-KRNNSRLGNGVLY-NH2
SMILES: CCCCCCCCCCCCCCCC(=O)N[C@@H](CCCCN)C(=O)N[C@@H](CCCNC(=N)N)C(=O)N[C@@H](CC(N)=O)C(=O)N[C@@H](CC(N)=O)C(=O)N[C@@H](CO)C(=O)N[C@@H](CCCNC(=N)N)C(=O)N[C@@H](CC(C)C)C(=O)NCC(=O)N[C@@H](CC(N)=O)C(=O)NCC(=O)N[C@H](C(=O)N[C@@H](CC(C)C)C(=O)N[C@@H](Cc1ccc(O)cc1)C(N)=O)C(C)C
B5: peptide 15 (Pal-NNSRLGNGVLY-NH2) (peptide)
peptide: Palmitoyl-NNSRLGNGVLY-NH2
SMILES: CCCCCCCCCCCCCCCC(=O)N[C@@H](CC(N)=O)C(=O)N[C@@H](CC(N)=O)C(=O)N[C@@H](CO)C(=O)N[C@@H](CCCNC(=N)N)C(=O)N[C@@H](CC(C)C)C(=O)NCC(=O)N[C@@H](CC(N)=O)C(=O)NCC(=O)N[C@H](C(=O)N[C@@H](CC(C)C)C(=O)N[C@@H](Cc1ccc(O)cc1)C(N)=O)C(C)C
B6: peptide 17 (Pal-NSRLGNGVLY-NH2) (peptide)
peptide: Palmitoyl-NSRLGNGVLY-NH2
SMILES: CCCCCCCCCCCCCCCC(=O)N[C@@H](CC(N)=O)C(=O)N[C@@H](CO)C(=O)N[C@@H](CCCNC(=N)N)C(=O)N[C@@H](CC(C)C)C(=O)NCC(=O)N[C@@H](CC(N)=O)C(=O)NCC(=O)N[C@H](C(=O)N[C@@H](CC(C)C)C(=O)N[C@@H](Cc1ccc(O)cc1)C(N)=O)C(C)C
B7: peptide 30 (Pal-RNNSRLGNGVL-NH2) (peptide)
peptide: Palmitoyl-RNNSRLGNGVL-NH2
SMILES: CCCCCCCCCCCCCCCC(=O)N[C@@H](CCCNC(=N)N)C(=O)N[C@@H](CC(N)=O)C(=O)N[C@@H](CC(N)=O)C(=O)N[C@@H](CO)C(=O)N[C@@H](CCCNC(=N)N)C(=O)N[C@@H](CC(C)C)C(=O)NCC(=O)N[C@@H](CC(N)=O)C(=O)NCC(=O)N[C@H](C(=O)N[C@@H](CC(C)C)C(N)=O)C(C)C
B8: peptide 29 (Pal-RNNSRLGNGVLF-NH2) (peptide)
peptide: Palmitoyl-RNNSRLGNGVLF-NH2
SMILES: CCCCCCCCCCCCCCCC(=O)N[C@@H](CCCNC(=N)N)C(=O)N[C@@H](CC(N)=O)C(=O)N[C@@H](CC(N)=O)C(=O)N[C@@H](CO)C(=O)N[C@@H](CCCNC(=N)N)C(=O)N[C@@H](CC(C)C)C(=O)NCC(=O)N[C@@H](CC(N)=O)C(=O)NCC(=O)N[C@H](C(=O)N[C@@H](CC(C)C)C(=O)N[C@@H](Cc1ccccc1)C(N)=O)C(C)C
B9: peptide 16 (Pal-RNNSRLGNGVLY-NH2) (peptide)
peptide: Palmitoyl-RNNSRLGNGVLY-NH2
SMILES: CCCCCCCCCCCCCCCC(=O)N[C@@H](CCCNC(=N)N)C(=O)N[C@@H](CC(N)=O)C(=O)N[C@@H](CC(N)=O)C(=O)N[C@@H](CO)C(=O)N[C@@H](CCCNC(=N)N)C(=O)N[C@@H](CC(C)C)C(=O)NCC(=O)N[C@@H](CC(N)=O)C(=O)NCC(=O)N[C@H](C(=O)N[C@@H](CC(C)C)C(=O)N[C@@H](Cc1ccc(O)cc1)C(N)=O)C(C)C
B10: peptide 19 (Pal-SRLGNGVLY-NH2) (peptide)
peptide: Palmitoyl-SRLGNGVLY-NH2
SMILES: CCCCCCCCCCCCCCCC(=O)N[C@@H](CO)C(=O)N[C@@H](CCCNC(=N)N)C(=O)N[C@@H](CC(C)C)C(=O)NCC(=O)N[C@@H](CC(N)=O)C(=O)NCC(=O)N[C@H](C(=O)N[C@@H](CC(C)C)C(=O)N[C@@H](Cc1ccc(O)cc1)C(N)=O)C(C)C

The binders below were run against Insulin-like growth factor 1 receptor (IGF1R) (UniProt P08069 31-1367, limits assumed) (assay: cell-based or functional assay).
Insulin-like growth factor 1 receptor (IGF1R), sequence (P08069 31-1367 limits assumed): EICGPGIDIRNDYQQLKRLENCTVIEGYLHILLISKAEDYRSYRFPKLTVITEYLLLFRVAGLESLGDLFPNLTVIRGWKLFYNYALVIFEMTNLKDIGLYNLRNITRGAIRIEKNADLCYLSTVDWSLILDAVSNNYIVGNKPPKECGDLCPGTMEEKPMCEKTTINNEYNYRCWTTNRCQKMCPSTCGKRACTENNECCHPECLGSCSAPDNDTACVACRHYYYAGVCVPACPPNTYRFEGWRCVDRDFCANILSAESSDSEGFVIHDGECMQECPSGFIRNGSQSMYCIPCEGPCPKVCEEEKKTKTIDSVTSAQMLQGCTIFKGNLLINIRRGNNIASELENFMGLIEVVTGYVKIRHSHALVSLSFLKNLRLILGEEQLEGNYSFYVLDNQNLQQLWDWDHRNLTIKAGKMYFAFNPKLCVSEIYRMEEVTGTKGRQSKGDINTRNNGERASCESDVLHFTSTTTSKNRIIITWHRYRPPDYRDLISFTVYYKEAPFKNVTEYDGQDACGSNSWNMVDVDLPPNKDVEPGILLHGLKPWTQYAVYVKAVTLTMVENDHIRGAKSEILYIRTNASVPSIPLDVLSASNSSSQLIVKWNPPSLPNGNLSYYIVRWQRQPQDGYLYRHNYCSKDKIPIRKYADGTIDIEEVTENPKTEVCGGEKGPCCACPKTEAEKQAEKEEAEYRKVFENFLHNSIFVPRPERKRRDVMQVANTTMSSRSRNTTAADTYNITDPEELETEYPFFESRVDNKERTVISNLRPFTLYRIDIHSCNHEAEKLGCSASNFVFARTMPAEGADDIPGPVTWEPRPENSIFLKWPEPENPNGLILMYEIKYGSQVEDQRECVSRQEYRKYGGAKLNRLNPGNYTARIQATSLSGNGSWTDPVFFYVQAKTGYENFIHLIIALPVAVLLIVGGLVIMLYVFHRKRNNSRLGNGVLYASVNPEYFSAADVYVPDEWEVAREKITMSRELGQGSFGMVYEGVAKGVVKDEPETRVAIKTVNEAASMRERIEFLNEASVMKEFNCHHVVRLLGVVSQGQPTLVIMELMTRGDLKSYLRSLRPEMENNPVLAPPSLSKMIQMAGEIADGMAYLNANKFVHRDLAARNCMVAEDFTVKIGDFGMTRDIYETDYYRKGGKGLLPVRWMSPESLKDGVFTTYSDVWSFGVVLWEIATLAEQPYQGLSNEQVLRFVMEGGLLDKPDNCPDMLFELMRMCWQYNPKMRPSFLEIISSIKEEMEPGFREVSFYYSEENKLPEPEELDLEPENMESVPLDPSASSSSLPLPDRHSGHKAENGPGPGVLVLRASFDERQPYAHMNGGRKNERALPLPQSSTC

| GI50 (µM), MTT assay, MCF-7 cells [µM] | TGI (µM), MTT assay, MCF-7 cells [µM] | Binder |
| --- | --- | --- |
| 0.2 | > 5 | B1 |
| 0.04 | > 5 | Palmitoyl-RNNSRLGNGVLYAS-NH2 (not fully specified; printed as Pal-RNNSRLGNGVLYAS-NH2) [peptide 34 (Pal-RNNSRLGNGVLYAS-NH2)] |
| 1 | 1.55 | B2 |
| 0.04 | 0.1 | B3 |
| 1.1 | 2.5 | B4 |
| 0.1 | > 5 | Palmitoyl-RNNSRLGNGVLYA-NH2 (not fully specified; printed as Pal-RNNSRLGNGVLYA-NH2) [peptide 33 (Pal-RNNSRLGNGVLYA-NH2)] |
| 0.1 | 1.5 | B5 |
| 0.05 | 2.5 | Palmitoyl-RNNSRLGNGVLYASV-NH2 (not fully specified; printed as Pal-RNNSRLGNGVLYASV-NH2) [peptide 35 (Pal-RNNSRLGNGVLYASV-NH2)] |
| 0.2 | 1.5 | B6 |
| 0.04 | 0.4 | Ac-[dY][dL][dV]G[dN]G[dL][dR][dS][dN][dN][dR][dK](Palmitoyl) [peptide 18 (Ac-YLVGNGLRSNNRK-(ε-Pal)), retro-inverso version of peptide 27] |
| 1.7 | 3.7 | B7 |
| 0.1 | 1.2 | B8 |
| 0.07 | 0.5 | B9 |
| 0.15 | 2 | B10 |
